# Target: human GITR on Jurkat/hGITR/hCD20 cells (human) (UniProt Q9Y5U5)
# Experiment: flow cytometry on Jurkat/hGITR/hCD20 cells
# Sequence of human GITR on Jurkat/hGITR/hCD20 cells (human) (Q9Y5U5 26-241): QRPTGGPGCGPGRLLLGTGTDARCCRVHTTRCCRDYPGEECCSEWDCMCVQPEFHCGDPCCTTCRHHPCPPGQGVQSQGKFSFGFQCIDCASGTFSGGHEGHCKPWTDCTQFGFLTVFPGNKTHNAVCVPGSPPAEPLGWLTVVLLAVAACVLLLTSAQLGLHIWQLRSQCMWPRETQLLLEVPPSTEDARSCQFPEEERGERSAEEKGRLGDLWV
substance,measurement,value
"REGN1932, IgG1 isotype control antibody",Maximum MFI,39900 MFI

# From patent US20220153819A1
